Test results taken from patent US7291768.

What was measured:
[1] = biological target: GAD-OsMYBS2 (Oryza sativa) (UniProt B8BI93); experiment: one_hybrid; conditions: LacZ increase vs no OsMYBS
[2] = biological target: T1, GAD-OsMYBS1 (Oryza sativa) (UniProt B8A9B2); experiment: one_hybrid; conditions: LacZ increase vs no OsMYBS
T1 sequence: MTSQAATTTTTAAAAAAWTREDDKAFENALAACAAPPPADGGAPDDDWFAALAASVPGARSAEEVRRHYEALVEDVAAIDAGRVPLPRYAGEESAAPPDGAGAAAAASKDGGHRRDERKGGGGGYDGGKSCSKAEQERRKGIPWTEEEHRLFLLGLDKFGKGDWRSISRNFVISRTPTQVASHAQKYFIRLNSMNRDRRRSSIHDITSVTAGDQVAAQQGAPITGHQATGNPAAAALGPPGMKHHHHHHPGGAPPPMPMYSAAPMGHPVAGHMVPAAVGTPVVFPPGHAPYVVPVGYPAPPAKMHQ

Sequence of GAD-OsMYBS2 (Oryza sativa) (B8BI93 other isoform, or with tags, fused parts or gaps): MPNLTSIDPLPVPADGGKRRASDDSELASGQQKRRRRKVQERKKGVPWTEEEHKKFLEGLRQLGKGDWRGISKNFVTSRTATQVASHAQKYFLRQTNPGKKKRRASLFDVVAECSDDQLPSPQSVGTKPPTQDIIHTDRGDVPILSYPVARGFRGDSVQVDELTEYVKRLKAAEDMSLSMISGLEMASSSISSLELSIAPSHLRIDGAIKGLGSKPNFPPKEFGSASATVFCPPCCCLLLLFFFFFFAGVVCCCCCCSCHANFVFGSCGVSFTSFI

## 8x(TATCCA+F), eight repeats of -133 to -82 of alphaAmy3
[1]
  activity: 5 fold
[2]
  activity: 3 fold
